Values of other authors, collected in PMC3597628.
Read-outs that look alike come from different tables or passages of the source.

Key:
[1] = molecular target: (Pro)renin receptor (Homo sapiens) (UniProt O75787)
[2] = molecular target: (Pro)renin receptor (Homo sapiens) (UniProt O75787); remark: listed apart in the source

Chain of UniProt O75787 (O75787 17-302): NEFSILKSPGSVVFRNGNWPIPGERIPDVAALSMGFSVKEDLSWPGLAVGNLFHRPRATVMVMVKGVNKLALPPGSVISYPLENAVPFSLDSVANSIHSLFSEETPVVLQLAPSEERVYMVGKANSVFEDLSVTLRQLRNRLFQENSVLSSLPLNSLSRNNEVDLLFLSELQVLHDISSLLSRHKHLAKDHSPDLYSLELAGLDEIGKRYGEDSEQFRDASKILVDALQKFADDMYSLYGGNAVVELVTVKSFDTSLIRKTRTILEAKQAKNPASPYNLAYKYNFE

Kd [1]	Kd [2]	Substance
1.2 nM	–	Prorenin (from UniProt P00797)
–	8.3 nM	Prorenin (from UniProt P08424)
